Results published in patent US9688764B2, “Methods of treating breast cancer by administering anti-human prolactin receptor (PRLR) antibodies” (REGENERON PHARMACEUTICALS, INC., priority 2013, dated 2017).
Like-named read-outs stand apart in the source and are kept apart here.

Key:
T47D cells = assay: Cell viability (cell kill) assay; assay type: cell-based
Procedure, shortened: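 T47D cells grown overnight, then exposed 3 days to anti-PRLR ADCs (DM1 via non-cleavable SMCC linker, or other maytansinoid toxins) or free DM1-SMe, 500 nM to 5 pM. Viability by CCK8 OD450, digitonin background subtracted, as % of untreated; IC50 from 10-point four-parameter fit. PRL (15 nM) co-incubation tested separately.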

HEK293 (293) cells = assay: Cell viability (cell kill) assay; assay type: cell-based
Procedure, shortened: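 Anti-PRLR–DM1 ADCs (non-cleavable SMCC linker) or free DM1-SMe, 500 nM to 5 pM for 3 days on parental or hPRLR-overexpressing lines. HEK293: CCK8 OD450; MCF7: Hoechst nuclear counts by imaging.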

[1] = Conjugate characterization: protein and linker/payload concentrations, payload loading (UV, MALDI-TOF, SEC-HPLC, RP-HPLC); assay type: physicochemical; conditions: Anti-PRLR-SMCC-DM1 conjugates; Table 9
Procedure, shortened: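 Anti-PRLR antibodies were conjugated to DM1 via an SMCC linker, then purified by size exclusion and sterile filtered. Protein and linker/payload concentrations came from UV and MALDI-TOF, and monomer content and free linker-payload from SEC-HPLC and RP-HPLC. Payload loading was determined by UV and by native-versus-conjugated mass difference, with yields based on protein.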

MCF7 (MCF7/ATCC) cells = assay: Cell viability (cell kill) assay, nuclear counts; assay type: cell-based
Procedure, shortened: (§1)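 Anti-PRLR ADCs or free DM1-SMe were added at 500 nM to 5 pM final to cells seeded overnight and were incubated 3 days. MCF7 lines were fixed with 4% formaldehyde plus Hoechst 33342, and nuclei were counted by imaging, with digitonin […] background subtracted. Viability was expressed as % of untreated cells, and IC50 was obtained from a 4-parameter fit of a 10-point curve.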

[2] = tested on: HEK293/hPRLR (293/hPRLR) cells; assay: Cell viability (cell kill) assay; assay type: cell-based, human; conditions: 3 days
Excerpt: PRLR-overexpressing cells, including HEK293, PC3, MCF7 and NCI-N87, were generated to assess the ability of anti-PRLR conjugated antibodies to reduce cell viability. For comparative purposes, PC3 and T47D cells with overexpressed ErbB2 were also generated, as well as an MCF7 cell line over-expressing both hPRLR and hErbB2. Briefly, Lipofectamine® 2000-mediated transfection methodology was utilized to generate HEK293 cells expressing human PRLR (HEK293/hPRLR) or human ErbB2 (HEK293/hErbB2). Lipofectamine LTX with Plus Reagent was used to generate PC3 cells expressing human PRLR (PC3/hPRLR) or human ErbB2 (PC3/hErbB2). Lentiviral-mediated transduction was utilized to generate MCF7 cells expressing human PRLR (MCF7/hPRLR), NCI-N87 cells expressing human PRLR (NCI-N87/hPRLR), T47D cells over-expressing human ErbB2 (T47D/hErbB2), and MCF7 cells expressing both human PRLR and human ErbB2 (MCF7/hPRLR/hErbB2). All lines were selected for at least two weeks in complete growth media plus appropriate selection reagents. Stably expressing populations were enriched for PRLR expression via FACS using the anti PRLR antibody Control I.
Next, the ability of anti-PRLR-DM1 antibody-drug conjugates (i.e., anti-PRLR antibodies conjugated to DM1 via a non-cleavable linker [SMCC]) to reduce cell viability was determined using in vitro cell based assays. Cells were seeded in PDL-coated 96 well plates at 1500 to 10000 cells per well in complete growth media and allowed to grow overnight. For cell viability curves, ADCs or free DM1 (as the methyl disulfide derivative DM1-SMe) were added to the cells at final concentrations ranging from 500 nM to 5 pM and incubated for 3 days. The 293, PC3 and T47D cells were incubated with CCK8 (Dojindo, Rockville, Md.) for the final 1-3 hours and the absorbance at 450 nm (OD450) was determined on a Flexstation3 (Molecular Devices, Sunnyvale, Calif.). MCF7 cells were treated with Hoechst 33342 nuclear stain while being fixed with 4% formaldehyde. Images were acquired on the ImageXpress micro XL (Molecular Devices, Sunnyvale, Calif.) and nuclear counts were determined via Columbus image analysis software (Perkin Elmer, Shelton, Conn.). Background OD450 values (PC3, 293, and T47D) or nuclear counts (MCF7) from digitonin (40 nM) treated cells was subtracted from all wells and viability was expressed as a percentage of the untreated controls. IC50 values were determined from a four-parameter logistic equation over a 10-point response curve (GraphPad Prism).

PC3 cells = assay: Cell viability (cell kill) assay; assay type: cell-based
Procedure, shortened: (§2)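 PC3 and PC3/hPRLR (lipofection-generated, FACS-enriched for PRLR) cells exposed 3 days to anti-PRLR ADCs or free DM1-SMe, 500 nM to 5 pM. Viability by CCK8 OD450, digitonin background subtracted, as % of untreated; IC50 from four-parameter fit of 10-point curves.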

PC3/hPRLR cells = assay: Cell viability (cell kill) assay; assay type: cell-based, human
Procedure, shortened: as §2

[3] = tested on: MCF7/hPRLR (MCF7/PRLR) cells; assay: Cell viability (cell kill) assay, nuclear counts; assay type: cell-based, human
Procedure, shortened: as §1

[4] = T47D, Table 12, 3 days, read-out: IC50
[5] = 293/PRLR, Table 11, read-out: IC50

B1: H1H6953N-DM1 (conjugate)
VH: EVQLLESGGGLVQPGGTLRLSCAASGFTFSAYAMSWVRQAPGKGLEWVSSINVRAGDTYYADSVKGRFTISRDNSKNTLFLLMNSLRAEDTAAYYCAKARYSSNWGFDFWGQGTLVTVSS
VL: DIVMTQSPDSLTVSLGARTTINCQSSQTILHSSNNHNYLAWYQQKPGLPPKLLIYWSSTRESGVPDRFSGSGSGTDFTLTISSLQAEDVAIYYCQQYSNTPYTFGQGTKLEIN
- IC50 (T47D cells; T47D cells (PRLR 12× above background), 3 days, read-out: IC50, cell viability): 1.3 nM
- % Kill (T47D cells; T47D, Table 12, 3 days): 79%
- IC50 (T47D cells; [4]): 1.64 nM
- IC50 (HEK293 (293) cells; 293, Table 11, 3 days): 100 nM
- IC50 (HEK293 (293) cells; 293, Table 14): 100 nM
- Payload:Antibody Molar Ratio (MS) [1]: 2.7
- Payload:Antibody Molar Ratio (UV) [1]: 3.2
- % Kill (MCF7 (MCF7/ATCC) cells; MCF7, Table 12, 3 days): 55%
- IC50 (MCF7 (MCF7/ATCC) cells; MCF7, Table 12, 3 days): 100 nM
- IC50 (MCF7 (MCF7/ATCC) cells; MCF7, Table 16): 82 nM
- % Kill ([2]; 293/PRLR, Table 11): 95%
- IC50 [2, 5]: 0.28 nM
- IC50 ([2]; 293/hPRLR cells (PRLR 18× above background), read-out: IC50, cell viability): 0.43 nM
- % Kill (PC3 cells; Table 15): 80%
- IC50 (PC3 cells; Table 15): 100 nM
- % Kill (PC3/hPRLR cells; PC3/PRLR, Table 11, 3 days): 67%
- IC50 (PC3/hPRLR cells; PC3/PRLR, Table 11, 3 days): 0.86 nM
- % Kill (PC3/hPRLR cells; PC3/PRLR, Table 15): 76%
- IC50 (PC3/hPRLR cells; PC3/PRLR, Table 15): 0.68 nM
- % Kill ([3]; Table 12, 3 days): 76%
- IC50 ([3]; Table 12, 3 days): 0.29 nM
- % Kill ([3]; Table 17): 76%
- IC50 ([3]; Table 17): 0.33 nM

B2: H1H6958N2-DM1: anti-PRLR antibody H1H6958N2 conjugated to DM1 through an SMCC linker (conjugate)
VH: QVQLVESGGGVVQPGRSLRLSCGASGFTFRNYGMQWVRQGPGKGLEWVTLISFDGNDKYYADSVKGRFTISRDNSKNTLFLQMNSLRTEDTAVYYCARGGDFDYWGQGTLVTVSS
VL: DIQMTQSPSSLSASVGDRVTITCRASQDIRKDLGWYQQKPGKAPKRLIYAASSLHSGVPSRFSGSGSGTEFTLTISSLQPEDFATYYCLQHNSYPMYTFGQGTKLEIK
- % Kill (T47D cells; T47D, Table 12, 3 days): 71%
- IC50 (T47D cells; [4]): 1.34 nM
- % Kill (T47D cells; T47D, Table 13, + 15 nM PRL): 100%
- IC50 (T47D cells; T47D, Table 13, + 15 nM PRL, read-out: IC50): 3 nM
- % Kill (T47D cells; T47D, Table 13, without PRL): 100%
- IC50 (T47D cells; T47D, Table 13, without PRL, read-out: IC50): 1 nM
- % Kill (T47D cells; T47D, Table 19): 100%
- IC50 (T47D cells; T47D, Table 19, read-out: IC50): 2 nM
- % Kill (HEK293 (293) cells; 293, Table 19): 90%
- IC50 (HEK293 (293) cells; 293, Table 19): 100 nM
- % Kill (HEK293 (293) cells; HEK293, Table 13, without PRL): 88%
- IC50 (HEK293 (293) cells; HEK293, Table 13, without PRL): 90 nM
- Payload:Antibody Molar Ratio (MS) [1]: 3.4
- Payload:Antibody Molar Ratio (UV) [1]: 4.0
- % Kill (MCF7 (MCF7/ATCC) cells; MCF7/ATCC, Table 18): 72%
- IC50 (MCF7 (MCF7/ATCC) cells; MCF7/ATCC, Table 18): 90 nM
- % Kill (MCF7 (MCF7/ATCC) cells; MCF7/ATCC, Table 20): 70%
- IC50 (MCF7 (MCF7/ATCC) cells; MCF7/ATCC, Table 20): 70 nM
- % Kill (MCF7 (MCF7/ATCC) cells; MCF7, Table 12, 3 days): 77%
- IC50 (MCF7 (MCF7/ATCC) cells; MCF7, Table 12, 3 days): 100 nM
- % Kill ([2]; 293/PRLR, Table 11): 95%
- IC50 [2, 5]: 0.1 nM
- % Kill (PC3 cells; Table 11, 3 days): 83%
- IC50 (PC3 cells; Table 11, 3 days): 150 nM
- % Kill (PC3/hPRLR cells; PC3/PRLR, Table 11, 3 days): 83%
- IC50 (PC3/hPRLR cells; PC3/PRLR, Table 11, 3 days): 0.43 nM
- % Kill (PC3/hPRLR cells; PC3/hPRLR, Table 18): 79%
- IC50 (PC3/hPRLR cells; PC3/hPRLR, Table 18): 0.5 nM
- % Kill ([3]; Table 12, 3 days): 77%
- IC50 ([3]; Table 12, 3 days): 0.19 nM
- % Kill ([3]; Table 18): 83%
- IC50 ([3]; Table 18): 0.2 nM
- % Kill ([3]; Table 20): 80%
- IC50 ([3]; Table 20): 0.2 nM
